One data set deals with T1, NF-YC9-6His (Arabidopsis thaliana, UniProt Q8L4B2 1-231).
T1 sequence: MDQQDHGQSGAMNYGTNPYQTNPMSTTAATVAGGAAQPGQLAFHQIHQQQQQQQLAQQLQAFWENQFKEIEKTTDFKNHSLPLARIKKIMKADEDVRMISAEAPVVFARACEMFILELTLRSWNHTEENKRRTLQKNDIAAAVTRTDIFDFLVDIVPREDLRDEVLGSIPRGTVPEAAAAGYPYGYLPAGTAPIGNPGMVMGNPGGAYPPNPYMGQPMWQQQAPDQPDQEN
Put plainly: EMSA; 5 mM MgCl2, poly(dI-dC); NF-YC9 alone; 25 mM HEPES pH 8.0, 40 mM KCl, 5 mM MgCl2, 1 mM DTT, 1 mM EDTA, 8% glycerol, 1 ug/uL poly(dI-dC), 20 fmol probe, 30 min room temperature, 5% native PAGE. As to conditions: protein: recombinant; tags: C-terminal 6His (codons in reverse primer); label: 5' biotin; blunt. (A gel shift assay detects complexes by their altered migration in electrophoresis.)

In another data set the target is T2, ABI5-6His (Arabidopsis thaliana, UniProt Q9SJN0 1-442).
T2 sequence: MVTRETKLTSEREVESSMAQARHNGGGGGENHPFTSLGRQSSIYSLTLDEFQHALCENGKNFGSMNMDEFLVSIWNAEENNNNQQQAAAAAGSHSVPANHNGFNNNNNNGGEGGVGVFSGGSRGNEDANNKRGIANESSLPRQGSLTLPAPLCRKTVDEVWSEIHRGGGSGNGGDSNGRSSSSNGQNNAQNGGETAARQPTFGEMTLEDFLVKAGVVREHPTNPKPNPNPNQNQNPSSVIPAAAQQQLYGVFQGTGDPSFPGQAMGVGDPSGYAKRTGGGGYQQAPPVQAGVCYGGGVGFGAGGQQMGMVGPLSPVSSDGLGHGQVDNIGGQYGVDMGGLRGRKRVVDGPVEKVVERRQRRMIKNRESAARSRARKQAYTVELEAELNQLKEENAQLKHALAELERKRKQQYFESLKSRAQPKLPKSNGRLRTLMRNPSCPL
Put plainly: EMSA; 5 mM MgCl2, poly(dI-dC); ABI5 alone, 1 ug; 25 mM HEPES pH 8.0, 40 mM KCl, 5 mM MgCl2, 1 mM DTT, 1 mM EDTA, 8% glycerol, 1 ug/uL poly(dI-dC), 20 fmol probe, 30 min room temperature, 5% native PAGE. Conditions: protein: recombinant; tags: C-terminal 6His (codons in reverse primer); chain copies: 2; label: 5' biotin; blunt.

B1: EM6 promoter probe (-277 to -220, contains pEm6.2) (dsDNA)
DNA 1: ACCACGTTCAAAGTATACGTCAGCTAATAAAGTCAGACACGTGGCATGTCACCAAGAA
DNA 2: TTCTTGGTGACATGCCACGTGTCTGACTTTATTAGCTGACGTATACTTTGAACGTGGT
For the molecule B1, the binding result in the data set with NF-YC9-6His was “no binding”; in the data set with ABI5-6His, “binds”.

Values taken from paper PMC5688200, “Overexpression of the transcription factor NF-YC9 confers abscisic acid hypersensitivity in Arabidopsis”.
